Test results reported in patent publication US20260250421A1 (BIOCYTOGEN PHARMACEUTICALS BEIJING, published 2026).

T1: human PTK7 on human cancer cell lines (human, UniProt Q13308 31-1070)
T1 construct: Endogenous PTK7 of human tumour cell lines; also called PTK7 on A-431, NCI-H520, NCI-N87, SK-OV-3, BT-20, HCC1954, NCI-H226, NCI-H358, HCT116, PC-3, NCI-H292, NCI-H1975 cells
T1 sequence: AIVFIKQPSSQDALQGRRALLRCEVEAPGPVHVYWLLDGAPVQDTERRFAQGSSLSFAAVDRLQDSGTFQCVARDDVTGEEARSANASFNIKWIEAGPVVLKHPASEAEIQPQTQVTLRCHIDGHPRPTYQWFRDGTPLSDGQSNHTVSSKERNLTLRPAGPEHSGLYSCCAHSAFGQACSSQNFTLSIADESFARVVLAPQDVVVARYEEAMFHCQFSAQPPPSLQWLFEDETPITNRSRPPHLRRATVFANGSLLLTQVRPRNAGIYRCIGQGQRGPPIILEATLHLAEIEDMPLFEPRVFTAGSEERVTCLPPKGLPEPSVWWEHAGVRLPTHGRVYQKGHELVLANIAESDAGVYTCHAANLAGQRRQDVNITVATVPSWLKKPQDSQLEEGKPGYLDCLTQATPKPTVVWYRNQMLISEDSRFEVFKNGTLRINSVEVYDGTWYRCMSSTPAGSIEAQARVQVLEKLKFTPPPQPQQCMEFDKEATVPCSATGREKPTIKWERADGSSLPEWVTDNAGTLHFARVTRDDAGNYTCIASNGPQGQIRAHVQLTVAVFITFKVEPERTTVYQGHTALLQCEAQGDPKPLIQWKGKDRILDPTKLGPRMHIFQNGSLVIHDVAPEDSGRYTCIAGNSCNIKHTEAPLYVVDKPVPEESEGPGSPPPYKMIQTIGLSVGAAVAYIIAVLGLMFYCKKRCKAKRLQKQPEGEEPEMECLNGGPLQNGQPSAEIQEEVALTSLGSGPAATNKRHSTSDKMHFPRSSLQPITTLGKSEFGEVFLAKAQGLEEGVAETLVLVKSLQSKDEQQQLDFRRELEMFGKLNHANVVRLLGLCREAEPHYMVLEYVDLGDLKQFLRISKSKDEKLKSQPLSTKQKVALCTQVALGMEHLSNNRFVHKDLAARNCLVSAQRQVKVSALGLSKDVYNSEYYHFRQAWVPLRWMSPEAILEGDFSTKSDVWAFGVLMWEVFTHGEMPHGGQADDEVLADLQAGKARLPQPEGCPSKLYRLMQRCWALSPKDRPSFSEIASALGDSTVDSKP

T2: dog PTK7 on dog cancer cell lines (dog, UniProt A0A8I3N574 31-1070)
T2 construct: whole, on cells; Endogenous protein on dog tumour cell lines; also called PTK7 on CMT-U27 and D-17 cells; dog cancer cells
T2 sequence: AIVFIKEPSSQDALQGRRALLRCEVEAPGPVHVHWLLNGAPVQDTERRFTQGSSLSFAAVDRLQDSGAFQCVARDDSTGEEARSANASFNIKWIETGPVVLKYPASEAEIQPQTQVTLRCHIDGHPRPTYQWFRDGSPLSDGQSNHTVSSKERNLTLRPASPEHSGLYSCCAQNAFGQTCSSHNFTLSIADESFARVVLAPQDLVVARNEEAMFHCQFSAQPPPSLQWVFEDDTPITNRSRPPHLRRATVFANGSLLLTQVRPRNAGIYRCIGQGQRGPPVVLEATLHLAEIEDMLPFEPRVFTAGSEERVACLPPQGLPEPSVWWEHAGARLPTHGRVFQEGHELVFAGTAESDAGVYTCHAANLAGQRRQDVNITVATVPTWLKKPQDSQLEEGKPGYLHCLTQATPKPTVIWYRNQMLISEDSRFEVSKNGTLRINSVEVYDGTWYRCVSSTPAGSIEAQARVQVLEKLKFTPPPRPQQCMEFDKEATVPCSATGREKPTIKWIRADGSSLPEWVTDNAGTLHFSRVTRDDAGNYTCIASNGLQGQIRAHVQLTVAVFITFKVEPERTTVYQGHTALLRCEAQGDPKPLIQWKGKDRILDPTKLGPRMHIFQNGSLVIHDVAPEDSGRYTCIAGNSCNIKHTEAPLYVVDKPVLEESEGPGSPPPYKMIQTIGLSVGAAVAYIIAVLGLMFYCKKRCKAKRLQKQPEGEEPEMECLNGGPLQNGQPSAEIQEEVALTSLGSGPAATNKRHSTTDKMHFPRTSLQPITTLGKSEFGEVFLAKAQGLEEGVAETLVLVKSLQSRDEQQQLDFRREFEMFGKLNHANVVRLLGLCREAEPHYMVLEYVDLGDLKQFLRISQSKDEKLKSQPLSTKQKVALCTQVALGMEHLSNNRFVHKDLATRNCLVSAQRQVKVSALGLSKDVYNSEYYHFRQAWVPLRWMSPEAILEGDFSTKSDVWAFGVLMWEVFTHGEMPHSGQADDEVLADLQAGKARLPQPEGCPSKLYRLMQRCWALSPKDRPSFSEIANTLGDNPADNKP


How the values were obtained:
[1] = molecular target: T1, human PTK7 on human cancer cell lines; test: flow cytometry, NCI-H292 cells, Ab 5 ug/mL
Protocol: (§1) The binding activity of anti-PTK7 antibodies to cancer cell lines was verified by flow cytometry. […] Purified anti-PTK7 antibody with a concentration of 5 μg/mL was added to each well and was incubated at 4° C. for 30 minutes. […] The cells were collected, and the mean fluorescence intensity (MFI) was determined. Human IgG1 was used as ISO control.

[2] = molecular target: T1, human PTK7 on human cancer cell lines; test: flow cytometry, A-431 cells, Ab 5 ug/mL
Protocol: as §1

[3] = molecular target: T2, dog PTK7 on dog cancer cell lines; test: flow cytometry, CMT-U27 dog cells, Ab 5 ug/mL
Protocol: as §1

Binder | MFI [1] | MFI [2] | MFI [3]
3C4 (antibody, V domains shown, also called anti-PTK7 antibody 3C4) VH: QVQLEQSRAEVKKPGESLRISCKGSGYSFTSYWISWVRQMPGKGLEWMGRIDPSDSYTNYNPSFQGHVTISADKSISTAYLQWSSLKASDTAMYYCARRDGSYFDFDYWGQGTLVTVSS VL: not shown | 92400 | 186000 | 37400
3E6 (antibody, V domains shown, also called anti-PTK7 antibody 3E6) VH: QVQLVESGAEVKKPGESLRISCRGSGYSFTSYWISWVRQMPGKGLEWMGRIDPSDSYTKYSPSFQGHVTISADKSISTAYLQWSSLKASDTAMYYCARRDGDYFDFDYWGQGTLVTVSS VL: not shown | 141000 | 289000 | 94500
1F2 (antibody, V domains shown, also called anti-PTK7 antibody 1F2) VH: QVQLVQSGGGLVQPGGSLRLSCAASGFTFSRYEMNWVRQAPGKGLEWVSYINSIGSAINYADSVKGRFTISRDNAKNSLYLQMRSLRAEDTAVYYCVREDNWNPGYWGQGTLVTVSS VL: not shown | 69300 | 156000 | 45800
1A7 (antibody, human IgG1, V domains shown, also called anti-PTK7 antibody 1A7) VH: QVQLVESGGGVVQPGRSLRLSCAASGFTFSNYGMHWVRQAPGKGLEWVAVIYYDGSNKFYADSVKGRFTISRDNSKNTLYLQMSSLRAEDTAVYYCARDVAPPGSRAEYFHHWGQGTLVTVSS VL: not shown | 43500 | 91100 | 56700
2A5 (antibody, V domains shown, also called anti-PTK7 antibody 2A5) VH: QVQLVQSGGGVVQPGRSLRLSCAASGFTFSNYGMHWVRQAPGKGLEWVAVIWYDGRNKYYADSVKGRFTISRDNSKNTLYLQMNSLRAEDTAVYYCARDVAPAGSRAEYFQNWGQGTLVTVSS VL: not shown | 92000 | 173000 | 76400
2F5 (antibody, V domains shown, also called anti-PTK7 antibody 2F5) VH: QVQLVESGGGVVQPGRSLRLSCVASGFTFSNYGMHWVRQAPGKGLEWVAIIYYDGSNKYYADSVKGRFTISRDNSKNTLYLQMNSLRAEDTAVYYCARDVAAAGSRAEYLHHWGQGTLVTVSS VL: not shown | 44500 | 106000 | 81300
2D11 (antibody, V domains shown, also called anti-PTK7 antibody 2D11) VH: QVQLVESGGGVVQPGRSLRLSCAASGFTFSSYGMHWVRQAPGKGLEWVAVIFYDGSNKYYADSVKGRFTISRDNSKNTLYLQMNSLRAEDTSVYYCARDVAAPGSRAEYFQNWGQGTLVTVSS VL: not shown | 134000 | 295000 | 72200
1A11 (antibody, V domains shown, also called anti-PTK7 antibody 1A11) VH: QVQLVQSGPGLVKPSETLSLTCTVSGGSINSYYWNWIRQPPGKGLEWIGYIYYSGSTNYNPSLKSRVTISVDTSKNQFSLKLSSVTAADTAVYYCARDPHDYIRGHFDLWGRGTLFTVSS VL: not shown | 125000 | 247000 | 75600
